B1: KSHV viral interferon regulatory factor 1, wild type, Flag-tagged (vIRF1-WT-Flag) [modified: lysine propionylation at Lys406 and Lys442 and lysine acetylation, as found on vIRF1 … (parent)
chain 1: MDPGQRPNPFGAPGAIPKKPCLSQGSPGTSGSGAPCDEPSRSESPGEGPSGTGGSAAAGDITRQAVVAAITEWSRTRQLRISTGASEGKASIKDWIVCQVNSGKFPGVEWEDEERTRFRIPVTPLADPCFEWRRDGELGVVYIRERGNMPVDASFKGTRGRRRMLAALRRTRGLQEIGKGISQDGHHFLVFRVRKPEEEQCVECGVVAGAVHDFNNMARLLQEGFFSPGQCLPGEIVTPVPSCTTAEGQEAVIDWGRLFIRMYYNGEQVHELLTTSQSGCRISSALRRDPAVHYCAVGSPGQVWLPNVPNLACEIAKRELCDTLDACAKGILLTSSCNGIFCVCYHNGPVHFIGNTVPPDSGPLLLPQGKPTRIFNPNTFLVGLANSPLPAPSHVTCPLVKLWLGKPVAVGKLEPHAPSPRDFAARCSNFSDACVVLEIMPKPLWDAMQ
chain 2: MGTPKPRILPWLVSQLDLGQLEGVAWVNKSRTRFRIPWKHGLRQDAQQEDFGIFQAWAEATGAYVPGRDKPDLPTWKRNFRSALNRKEGLRLAEDRSKDPHDPHKIYEFVNSGVGDFSQPDTSPDTNGGGSTSDTQEDILDELLGNMVLAPLPDPGPPSLAVAPEPCPQPLRSPSLDNPTPFPNLGPSENPLKRLLVPGEEWEFEVTAFYRGRQVFQQTISCPEGLRLVGSEVGDRTLPGWPVTLPDPGMSLTDRGVMSYVRHVLSCLGGGLALWRAGQWLWAQRLGHCHTYWAVSEELLPNSGHGPDGEVPKDKEGGVFDLGPFIVDLITFTEGSGRSPRYALWFCVGESWPQDQPWTKRLVMVKVVPTCLRALVEMARVGGASSLENTVDLHISNSHPLSLTSDQYKAYLQDLVEGMDFQGPGES

Variants of: B1
Experiment: co-immunoprecipitation (anti-Myc IP, anti-Flag Western blot)
Details: with Myc-tagged IRF3 (IRF3-Myc); HEK293T cells; parent: 1
In the case of chain 1 K89R K93R K104R K156R K179R K195R, the ratio to parent is reported as 0.7. Work on chain 1 K317R K329R K370R K401R K406R K412R K442R yielded a ratio to parent of 0.1. chain 1 K406R was tested, and the ratio to parent was 0.5. chain 1 K442R was tested, and the ratio to parent was 0.2.

— article PMC10112802
